Results: the supplement of paper PMC9170038

Test system: MS2 coat protein
Assay: apparent KD of MS2 coat protein; designed switch direction (-1 OFF switch, 1 ON switch): -1; higher = weaker reporter binding
Outline: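 The buffer was Tris-HCl pH 7.5 with KCl, MgCl2, BSA, DTT, tRNA and Tween-20. In it, SNAP-549-labelled MS2 coat protein was titrated in doubling steps from 0.7 or 1.5 nM to 3 µM over chip-bound RNA switches transcribed by stalled E. coli RNA polymerase on Illumina chips. Apparent KD is the per-design median over clusters of curve fits to normalised fluorescence.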

[1] = input ligand: microRNA oligo, concentration not stated
[2] = Eterna round: R95, input ligand: microRNA oligo, concentration not stated
[3] = Eterna round: R95, input ligand: FMN 200 uM
[4] = Eterna round: R95, input ligand: none

Row | Sequence | apparent KD of MS2 coat protein (input ligand: FMN 200 uM) | apparent KD of MS2 coat protein (input ligand: none) | apparent KD of MS2 coat protein [2] | also measured
1 | UAUAUAUAGUAAGGAUAUGUAUAUAUGUUAUAAACAGAAGGUACUGACAUGAGGAUCACCCAUGUUUUAGUGUGGGCAUGUAGA [JMF's solution 59] (Eterna round: R96, puzzle: Exclusion NG 1) | – | – | – | apparent KD of MS2 coat protein [1]: 53.8 nM
2 | UAUAUGUCAGGAUAUUAGUAGUAAAUAAAUAAAAUUAUUACUGAGAAGGGACAUGAGGAUCACCCAUGUACCUU [Salish 062 v32] (Eterna round: R97, puzzle: Exclusion 4) | 16.1 nM | 15.5 nM | – | –
3 | UAUCAUGUAGGAUAUACGUAGCUAUGACCCUCGAGAACUAUACAUGAGGAUCACCCAUGUAGAAGGGCGACUUU [Eternabot (L1) Solution 34] (Eterna round: R97, puzzle: Exclusion 2) | 21.3 nM | 17.2 nM | – | –
4 | UAUCCACAUGAGGAUCACCCAUGUGAGGAUAUGAUACUAUGUACUUCGGUACAUAGUAUCAGAAGGCACAGGUC [Ex1-3: 57] (puzzle: Exclusion 1) | – | – | 20.3 nM | –
5 | UAUCGGCGGACCGAGGCUUUUUGCUCGUCUUAUGCUACGACAUGAGGAUCACCCAUGUGGUGGUGGUCCGUUGUAGU [JL ViennaUCT Bitein mod 8] (puzzle: Sensor v3, turn-off variant 2) | – | – | 15.2 nM | apparent KD of MS2 coat protein [3]: 123 nM; apparent KD of MS2 coat protein [4]: 107 nM
6 | UAUGGUAAAGUCAGGAUAUACGUGCAGAAUUCUAGGUAGAAGGGACAUGAGGAUCACCCAUGUAUGGUAGUGUU [Ex4 #44] (Eterna round: R97, puzzle: Brourd's mod of Exclusion 4) | 146 nM | 104 nM | – | –
7 | UAUGUGUGAGGAUAUGGUAAAGAUAAGAUGAUGAAAGAACUCCAGAAGGCACAUGAGGAUCACCCAUGUAGAUG [JL-ex4-2.10 Jieux mod] (puzzle: Exclusion 4) | – | – | 37.2 nM | apparent KD of MS2 coat protein [3]: 53.8 nM; apparent KD of MS2 coat protein [4]: 32.2 nM
8 | UAUGUUGUUGUGAGGAUAUACUUAGUUUGACCGUAGUAGAAGGCACAUGAGGAUCACCCAUGUAGAUUUUUGGU [JR_BME4_Sub007] (puzzle: Brourd's mod of Exclusion 4) | – | – | 9.49 nM | –
9 | UAUUAAACAUAGGAUAUCGAAUAUAUCAUUUAACGAGAAGGAUGAACAUGAGGAUCACCCAUGUGGUAUCAUGG [Mat - Exclusion 6 - JL Mod - D13] (puzzle: Exclusion 6) | – | – | 269 nM | apparent KD of MS2 coat protein [3]: 196 nM; apparent KD of MS2 coat protein [4]: 410 nM
10 | UAUUAACAAGUAAGAUCCCACAUGAGGAUCACCCAUGUGCUCGUCUUAUAAGGUACUGUGACGAAAGUCACGGUACC [Dup of Eli's R95 Sensor 3, v1 - 87] (Eterna round: R97, puzzle: Sensor, turn-off variant 1) | 16.3 nM | 16.5 nM | – | –
11 | UAUUAACAAGUAAGAUCCCACAUGAGGAUCACCCAUGUGCUCGUCUUAUAAGGUACUGUGACGAAAGUCACGGUACC [Sensor 3, v1 - 87] (Eterna round: R96, puzzle: Sensor v3, turn-off variant 1) | 13.8 nM | 16.9 nM | – | apparent KD of MS2 coat protein [1]: 367 nM
12 | UAUUAACAAGUAAGAUCCCACAUGAGGAUCACCCAUGUGCUCGUCUUAUAAGGUACUGUGACGAAAGUCACGGUACC [Sensor 3, v1 - 87] (puzzle: Sensor v3, turn-off variant 1) | – | – | 953 nM | apparent KD of MS2 coat protein [3]: 16.9 nM; apparent KD of MS2 coat protein [4]: 13 nM
13 | UAUUAGCAAGCAAAUGGGUACAUGAGGAUCACCCAUGUGCUCGUCUUAUAAGGUACUGUGACGACAGUCACGGUACC [mod--Eli4] (Eterna round: R97, puzzle: Sensor, turn-off variant 1) | 24.5 nM | 25.3 nM | – | –
14 | UAUUAGCAAGCAAGAUCCCACAUGAGGAUCACCCAUGUGCUCGUCUUAUAAGGUACUGUGACGAGAGUCACGGUACC [Mat - Sensor, turn-off var - Eli Mod - D47] (Eterna round: R97, puzzle: Sensor, turn-off variant 1) | 51.4 nM | 54.2 nM | – | –
15 | UAUUAGCAAGCGAGAUCCCACAUGAGGAUCACCCAUGUAAUAAGCAUCCAGAAUUACUGGGUGCAAGCUCGUCUUAU [Winner reversed engineered 10] (Eterna round: R97, puzzle: Sensor, turn-off variant 1) | 45.4 nM | 42.9 nM | – | –
16 | UAUUAGCAAGCGAGAUCCCACAUGAGGAUCACCCAUGUGCUCGCAUCCAGAAUUACUGGGUGCAAAGCUCGUCUUAU [Winner reversed engineered 8] (Eterna round: R97, puzzle: Sensor, turn-off variant 1) | 23.1 nM | 23.3 nM | – | –
17 | UAUUAGCAAGCGAGAUCCGACAUGAGGAUCACCCAUGUGCUCGUCUUAUAAGGGAGGGAGGGAAAACCCUCCCUCCC [Elimod 9 - Jieux - Sensor, turn-off variant 1] (Eterna round: R97, puzzle: Sensor, turn-off variant 1) | 19.5 nM | 21.2 nM | – | –

Row | Sequence | apparent KD of MS2 coat protein (input ligand: FMN 200 uM) | apparent KD of MS2 coat protein (input ligand: none) | apparent KD of MS2 coat protein [2] | also measured
18 | UAUUAGCAAGCGAGAUCCUACAUGAGGAUCACCCAUGUGCUCGUCUUAUAAGGUACUGUGACGAAAGUCACGGUACC [Eli 91 v36] (Eterna round: R97, puzzle: Sensor, turn-off variant 1) | 18.2 nM | 27.5 nM | – | –
19 | UAUUAGCAAGCGAGGUCCCACAUGAGGAUCACCCAUGUGCUCGUCUUAUAAGGUACUGUGACGAAAGUCACGGUACC [Sensor 3, v1 - 91 v8] (Eterna round: R97, puzzle: Sensor, turn-off variant 1) | 14.7 nM | 13.1 nM | – | –
20 | UAUUAGUGAGGAUAUGAGUCGUAGAACAAUAGUACUACGUCUCAGAAGGCACAUGAGGAUCACCCAUGUUCCUU [Fiskers Ex 4 Super Stable 44 mod 35] (puzzle: Exclusion 4) | – | – | 13.6 nM | –
21 | UAUUAGUGAGGAUAUGAGUCGUAGAACAAUAGUACUACGUCUCAGAAGGCACAUGAGGAUCACCCAUGUUCCUU [Mod of Fisker - Jieux - Exclusion 4] (Eterna round: R97, puzzle: Exclusion 4) | 71.3 nM | 16.1 nM | – | –
22 | UAUUAGUGAGGAUAUGAGUCGUAGAACAAUAGUACUACGUCUCAGAAGGUACAUGAGGAUCACCCAUGUUUCUC [Fiskers Ex 4 Super Stable 44 mod 33] (puzzle: Exclusion 4) | – | – | 18.8 nM | –
23 | UAUUAUAAUGUAGGAUAUCUGCACGUUUAGUGCAGAGAAGGACAUGAGGAUCACCCAUGUAUAGUAGCUUCGGCUACAUUAUUU [ENG1-B2] (Eterna round: R96, puzzle: Exclusion NG 1) | 103 nM | 68.9 nM | – | apparent KD of MS2 coat protein [1]: 52.2 nM
24 | UAUUCUGGAGGAUAUACAUGAGGAUCACCCAUGUAAAUUGUACAGAGCGGGAGUCUAUGUAGAAGGCUAGGACA [EX3 C.2] (Eterna round: R97, puzzle: Exclusion 3) | 60.8 nM | 19.1 nM | – | –
25 | UAUUUACAUGAGGAUCACCCAUGUCAGGAUAUGCGUCGAUCGUCGAAAGACGAUAGCCGCAGAAGGGACAAUAU [LRO-Excl01-20 mod derived from EliFisker 4.24] (Eterna round: R97, puzzle: Exclusion 1) | 246 nM | 83.1 nM | – | –
26 | UAUUUAUAGCAAGGAUAUGAUUAUUAUUAUUUAUCAGAAGGUGCACAUGAGGAUCACCCAUGUUUUAUAUAUAAUAAUUUAAUU [Title] (Eterna round: R96, puzzle: Exclusion NG 1) | – | – | – | apparent KD of MS2 coat protein [1]: 82.5 nM
27 | UAUUUAUAUGAAGGAUAUACUUAACAUGAGGAUCACCCAUGUGGUGUUGUGAGUGAGUGAGUUUAGUAGAAGGUCAAGUAUUUU [JMF's solution 53] (Eterna round: R96, puzzle: Exclusion NG 2) | 844 nM | 456 nM | – | apparent KD of MS2 coat protein [1]: 378 nM
28 | UAUUUGCAAGCGAGAUCCCACAUGAGGAUCACCCAUGUUCUUGGAAAGUACAGAAUUACUGUACAAGCUCGUCUUAU [Winner reversed engineered 32] (Eterna round: R97, puzzle: Sensor, turn-off variant 1) | 22.1 nM | 25.7 nM | – | –
29 | UCAAAGUCAGGAUAUACAUGAGGAUCACCCAUGUAAAAUUUUAAUUUAAUUUGAAGGUGUAGAAGGGACAAACC [Ex3 #33] (Eterna round: R97, puzzle: Exclusion 3) | 18.3 nM | 31.6 nM | – | –
30 | UCAAGCUUUAAGCGUGUGAACAUGAGGAUCACCCAUGUAUUUUUGGUUAGGAGUUCUGUAAGGGAUGCUCGUCUUAU [JR_SWV3TOV1_Sub093] (puzzle: Sensor v3, turn-off variant 1) | – | – | 47.5 nM | apparent KD of MS2 coat protein [3]: 37.4 nM; apparent KD of MS2 coat protein [4]: 50.7 nM
31 | UCAGUUCUGCAAGGAUAUCGUCCUAGUUUGGUUCGAGAAGGUGCUUUUGUUUUUUCUUUGUGUUGACAUGAGGAUCACCCAUGU [JR_ExcNG1_Sub053] (Eterna round: R96, puzzle: Exclusion NG 1) | 20.7 nM | 27.1 nM | – | apparent KD of MS2 coat protein [1]: 13.8 nM
32 | UCAUGCUAAGGAUAUGACGUCGGCUACAUGAGGAUCACCCAUGUGGGUUCGUUAUGGCCAUUAGAAGGUAGCGAUU [Eternabot (L2) Solution 95] (Eterna round: R97, puzzle: Exclusion 5) | 17.8 nM | – | – | –
33 | UCAUGGUAGCAGGAUAUGCUAGAAAUUUUUUAUGCAGAAGGGCUUACAUGAGGAUCACCCAUGUGUUAGGUUUA [JR_E6_Sub071] (puzzle: Exclusion 6) | – | – | 110 nM | apparent KD of MS2 coat protein [3]: 22.3 nM; apparent KD of MS2 coat protein [4]: 221 nM
